Laboratory results from patent publication EP4538294A1 (Shandong Simcere Biopharmaceutical Co., Ltd., dated 2025).
Values joined by “and” are separate entries in the source; they are usually repeats but may differ in a detail not shown here. Identical values can stand only once.

B1: JNJ7564 (bispecific antibody, human IgG4 S228P, kappa, lambda, F234A L235A)
heavy 1: not shown
light 1: DIQMTQSPSSLSASVGDRVTITCKASQNVATHVGWYQQKPGKAPKRLIYSASYRYSGVPSRFSGSGSGTEFTLTISNLQPEDFATYYCQQYNRYPYTFGQGTKLEIKRTVAAPSVFIFPPSDEQLKSGTASVVCLLNNFYPREAKVQWKVDNALQSGNSQESVTEQDSKDSTYSLSSTLTLSKADYEKHKVYACEVTHQGLSSPVTKSFNRGEC
heavy 2: EVQLVESGGGLVQPGGSLRLSCAASGFTFNTYAMNWVRQAPGKGLEWVARIRSKYNNYATYYAASVKGRFTISRDDSKNSLYLQMNSLKTEDTAVYYCARHGNFGNSYVSWFAYWGQGTLVTVSSASTKGPSVFPLAPCSRSTSESTAALGCLVKDYFPEPVTVSWNSGALTSGVHTFPAVLQSSGLYSLSSVVTVPSSSLGTKTYTCNVDHKPSNTKVDKRVESKYGPPCPPCPAPEAAGGPSVFLFPPKPKDTLMISRTPEVTCVVVDVSQEDPEVQFNWYVDGVEVHNAKTKPREEQFNSTYRVVSVLTVLHQDWLNGKEYKCKVSNKGLPSSIEKTISKAKGQPREPQVYTLPPSQEEMTKNQVSLTCLVKGFYPSDIAVEWESNGQPENNYKTTPPVLDSDGSFLLYSKLTVDKSRWQEGNVFSCSVMHEALHNHYTQKSLSLSLGK
light 2: QTVVTQEPSLTVSPGGTVTLTCRSSTGAVTTSNYANWVQQKPGQAPRGLIGGTNKRAPGTPARFSGSLLGGKAALTLSGVQPEDEAEYYCALWYSNLWVFGGGTKLTVLGQPKAAPSVTLFPPSSEELQANKATLVCLISDFYPGAVTVAWKADSSPVKAGVETTTPSKQSNNKYAASSYLSLTPEQWKSHRSYSCQVTHEGSTVEKTVAPTECS
notes: Positive control, GPRC5D x CD3 bispecific of Johnson & Johnson (WO 2019220368 A1), made by reduction and reoxidation of the two parental antibodies
B2: REGN5459 (bispecific antibody, human IgG4 S228P, kappa)
heavy 1: EVQLVESGGGLVQPGGSLRLSCAASGFTFSNFWMTWVRQAPGKGLEWVANMNQDGSEKYYVDSVKGRFTISRDNAKSSLYLQMNSLRAEDTAVYYCARDREYCISTSCYDDFDYWGQGTLVTVSSASTKGPSVFPLAPCSRSTSESTAALGCLVKDYFPEPVTVSWNSGALTSGVHTFPAVLQSSGLYSLSSVVTVPSSSLGTKTYTCNVDHKPSNTKVDKRVESKYGPPCPPCPAPPVAGPSVFLFPPKPKDTLMISRTPEVTCVVVDVSQEDPEVQFNWYVDGVEVHNAKTKPREEQFNSTYRVVSVLTVLHQDWLNGKEYKCKVSNKGLPSSIEKTISKAKGQPREPQVYTLPPSQEEMTKNQVSLTCLVKGFYPSDIAVEWESNGQPENNYKTTPPVLDSDGSFFLYSRLTVDKSRWQEGNVFSCSVMHEALHNHYTQKSLSLSLGK
heavy 2: EVQLVESGGGLVQPGRSLRLSCAASGFTFDDYSMHWVRQAPGKGLEWVSGISWNSGSIGYADSVKGRFTISRDNAKNSLYLQMNSLRAEDTALYYCAKYGSGYGKFYYYGMDVWGQGTTVTVSSASTKGPSVFPLAPCSRSTSESTAALGCLVKDYFPEPVTVSWNSGALTSGVHTFPAVLQSSGLYSLSSVVTVPSSSLGTKTYTCNVDHKPSNTKVDKRVESKYGPPCPPCPAPPVAGPSVFLFPPKPKDTLMISRTPEVTCVVVDVSQEDPEVQFNWYVDGVEVHNAKTKPREEQFNSTYRVVSVLTVLHQDWLNGKEYKCKVSNKGLPSSIEKTISKAKGQPREPQVYTLPPSQEEMTKNQVSLTCLVKGFYPSDIAVEWESNGQPENNYKTTPPVLDSDGSFFLYSRLTVDKSRWQEGNVFSCSVMHEALHNRFTQKSLSLSLGK
light: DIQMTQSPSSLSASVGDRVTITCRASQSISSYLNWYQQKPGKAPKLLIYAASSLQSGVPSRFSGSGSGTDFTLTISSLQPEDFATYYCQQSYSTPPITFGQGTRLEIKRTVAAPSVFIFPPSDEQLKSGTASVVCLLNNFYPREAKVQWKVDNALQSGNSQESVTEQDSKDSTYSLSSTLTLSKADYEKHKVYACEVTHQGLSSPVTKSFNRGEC
notes: Positive control, BCMA x CD3 bispecific of Regeneron (WO 2020018820 A1), made in Expi293F; Fc with mutations that prevent homodimerization; also called RGEN5459
B3: Tri-17 (trispecific antibody, V domains shown)
VHH: EVQLVESGGGLVQPGGSLRLSCSASGFTLDYYMIGWFRQAPGKEREGLSSISPADGSTYYADSVKGRFTISRDSSKNTVYLQMNSLRAEDTAVYYCAAGNEATISWGFGPWEYDYWGQGTMVTVSS
VH 1: EVQLVQSGAEVKKPGSSVKVSCKASGYTFTSYGISWVRQAPGQGLEWMGEIYPRSGNTYYNEKFKGRVTLTADKSTSTAYMELSSLRSEDTAVYYCARGRAYGRNYPMDYWGQGTTVTVSS
VL 1: EIVLTQSPATLSLSPGERATLSCRASQSIGTSIHWYQQKPGQSPRLLIKYASESISGIPARFSGSGSGTDFTLTISSLEPEDFAVYYCQQSNSWPYTFGGGTKVEIK
VH 2: EVQLVESGGGVVQPGRSLRLSCAASGFTFTDYYMSWVRQAPGKGLEWVAMSRNKAKGHTIEYSSSVKGRFTISRDNSKNTLYLQMNSLRAEDTAVYYCARDTYESYDGYFDVWGQGTTVTVSS
VL 2: DIVMTQSPDSLAVSLGERATINCKSSQSLFNSRSRKNYLAWYQQKPGQTPKLLIYWASIRESGVPDRFSGSGSGTDFTLTISSLQAEDVAVYYCKQSYYLYTFGQGTKLEIK
B4: Tri-56 (trispecific antibody, V domains shown)
VHH: EVQLVESGGGLVQPGGSLRLSCAASESISSIHIMAWYRQAPGKQRELVAGIRNDGSTVYVDSVKGRFTISRDNAKNSLYLQMNSLRAEDTAVYYCNADQGFGSYSEWERRSRWGQGTTVTVSS
VH 1: B3 VH 1
VL 1: B3 VL 1
VH 2: B3 VH 2
VL 2: B3 VL 2
B5: Tri-46 (trispecific antibody, V domains shown)
VHH: B4 VHH
VH 1: B3 VH 1
VL 1: B3 VL 1
VH 2: B3 VH 2
VL 2: B3 VL 2
B6: Tri-38 (trispecific antibody, V domains shown)
VHH: B3 VHH
VH 1: B3 VH 1
VL 1: B3 VL 1
VH 2: B3 VH 2
VL 2: B3 VL 2
B7: Tri-65 (trispecific antibody, V domains shown)
VHH: B4 VHH
VH 1: EVQLVQSGAEVKKPGASVKVSCKTSGYIFTNFGITWVRQAPGQRLEWMGENYPRRINTYYNEKFKGRVTITADKSASTAYMELSSLRSEDTAVYYCSRKDIFGLSYALDYWGQGTTVTVSS
VL 1: DIQMTQSPSSLSASVGDRVTITCKASQNVGTNVAWYQHKPGKSPKALIYSASYQYSGVPSRFSGSGSGTDFTLTISSLQPEDVATYICQQYKNYPYTFGGGTKVEIK
VH 2: B3 VH 2
VL 2: B3 VL 2
B8: Tri-52 (trispecific antibody, V domains shown)
VHH: B4 VHH
VH 1: B3 VH 1
VL 1: B3 VL 1
VH 2: B3 VH 2
VL 2: B3 VL 2
B9: Tri-64 (trispecific antibody, V domains shown)
VHH: B4 VHH
VH 1: B3 VH 1
VL 1: B3 VL 1
VH 2: B3 VH 2
VL 2: B3 VL 2
B10: Tri-63 (trispecific antibody, V domains shown)
VHH: B4 VHH
VH 1: B3 VH 1
VL 1: B3 VL 1
VH 2: B3 VH 2
VL 2: B3 VL 2
B11: Tri-66 (trispecific antibody, V domains shown)
VHH: B4 VHH
VH 1: B7 VH 1
VL 1: B7 VL 1
VH 2: B3 VH 2
VL 2: B3 VL 2
B12: antiFITC×CD3-Hab01 (bispecific antibody, human IgG4 S228P, kappa, F234A L235A)
heavy: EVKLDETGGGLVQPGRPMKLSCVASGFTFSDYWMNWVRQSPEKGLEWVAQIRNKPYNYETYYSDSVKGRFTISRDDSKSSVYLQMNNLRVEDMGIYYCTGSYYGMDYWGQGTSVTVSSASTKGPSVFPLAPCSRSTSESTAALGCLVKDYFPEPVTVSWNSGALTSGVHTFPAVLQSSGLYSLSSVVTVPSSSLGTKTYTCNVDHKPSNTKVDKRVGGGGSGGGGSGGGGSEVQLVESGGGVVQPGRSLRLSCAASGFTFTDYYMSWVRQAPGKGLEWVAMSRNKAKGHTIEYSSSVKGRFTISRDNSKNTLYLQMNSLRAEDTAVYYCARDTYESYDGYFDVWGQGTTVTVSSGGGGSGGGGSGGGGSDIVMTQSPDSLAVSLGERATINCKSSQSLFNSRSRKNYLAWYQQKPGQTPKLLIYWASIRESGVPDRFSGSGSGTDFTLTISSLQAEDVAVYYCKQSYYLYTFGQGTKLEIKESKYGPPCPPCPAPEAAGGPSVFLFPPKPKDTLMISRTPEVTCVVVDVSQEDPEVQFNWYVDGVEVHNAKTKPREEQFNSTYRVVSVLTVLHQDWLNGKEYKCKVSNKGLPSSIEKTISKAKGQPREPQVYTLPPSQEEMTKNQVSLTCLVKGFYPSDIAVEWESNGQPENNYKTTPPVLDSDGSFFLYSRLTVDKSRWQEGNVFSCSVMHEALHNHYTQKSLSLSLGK
light: DVVMTQTPLSLPVSLGDQASISCRSSQSLVHSNGNTYLRWYLQKPGQSPKVLIYKVSNRFSGVPDRFSGSGSGTDFTLKISRVEAEDLGVYFCSQSTHVPWTFGGGTKLEIKRTVAAPSVFIFPPSDEQLKSGTASVVCLLNNFYPREAKVQWKVDNALQSGNSQESVTEQDSKDSTYSLSSTLTLSKADYEKHKVYACEVTHQGLSSPVTKSFNRGEC
notes: Negative control for the tumor antigens, prepared internally; carries the CD3-Hab01 arm

Legend:
[1] = molecular target: T1, human CD3 on Jurkat cells and on activated human PBMC (human, UniProt P07766 23-207; P04234 22-171); experiment: FACS, activated human PBMC
T1 construct: whole, on cells; Endogenous CD3 of the T cell receptor complex on cells

[2] = molecular target: T2, monkey CD3 on activated monkey PBMC (monkey); experiment: FACS, activated monkey PBMC
T2 construct: whole, on cells

[3] = molecular target: T3, human BCMA on Flp-inCHO-human BCMA cells (human, UniProt Q02223 1-184); experiment: FACS, Flp-inCHO-human BCMA cells
T3 construct: whole, on cells
T3 sequence (looked up): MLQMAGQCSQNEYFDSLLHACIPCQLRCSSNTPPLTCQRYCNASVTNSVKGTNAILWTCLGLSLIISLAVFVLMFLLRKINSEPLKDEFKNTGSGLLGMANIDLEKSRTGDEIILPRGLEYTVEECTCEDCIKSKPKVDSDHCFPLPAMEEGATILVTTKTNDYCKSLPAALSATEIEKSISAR

[4] = molecular target: T1, human CD3 on Jurkat cells and on …; experiment: FACS, Jurkat cells
[5] = molecular target: T4, human GPRC5D on CHOK1-human GPRC5D cells (human, UniProt Q9NZD1 1-345); experiment: FACS, CHOK1-human GPRC5D cells
T4 construct: whole, on cells
T4 sequence (Q9NZD1 whole entry): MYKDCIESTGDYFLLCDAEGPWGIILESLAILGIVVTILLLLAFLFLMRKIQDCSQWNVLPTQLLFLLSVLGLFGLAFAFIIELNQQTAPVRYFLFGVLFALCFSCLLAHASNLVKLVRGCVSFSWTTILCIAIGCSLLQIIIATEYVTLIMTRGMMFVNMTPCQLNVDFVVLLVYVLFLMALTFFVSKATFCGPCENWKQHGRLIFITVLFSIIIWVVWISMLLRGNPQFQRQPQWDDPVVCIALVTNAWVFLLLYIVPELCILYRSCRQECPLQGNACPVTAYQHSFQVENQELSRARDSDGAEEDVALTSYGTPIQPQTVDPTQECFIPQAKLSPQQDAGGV

T1 sequence (P07766 23-207, chain 1 of 2): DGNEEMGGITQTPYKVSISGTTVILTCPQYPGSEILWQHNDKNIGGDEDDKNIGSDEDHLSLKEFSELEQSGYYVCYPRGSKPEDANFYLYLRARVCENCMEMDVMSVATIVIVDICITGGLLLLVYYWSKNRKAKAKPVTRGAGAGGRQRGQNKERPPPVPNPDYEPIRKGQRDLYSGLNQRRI
T1 sequence (P04234 22-171, chain 2 of 2): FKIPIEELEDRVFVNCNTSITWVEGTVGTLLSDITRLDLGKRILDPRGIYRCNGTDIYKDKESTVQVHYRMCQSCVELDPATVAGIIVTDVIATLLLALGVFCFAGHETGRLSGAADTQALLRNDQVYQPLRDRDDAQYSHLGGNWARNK
T2 sequence (Q95LI5 22-198): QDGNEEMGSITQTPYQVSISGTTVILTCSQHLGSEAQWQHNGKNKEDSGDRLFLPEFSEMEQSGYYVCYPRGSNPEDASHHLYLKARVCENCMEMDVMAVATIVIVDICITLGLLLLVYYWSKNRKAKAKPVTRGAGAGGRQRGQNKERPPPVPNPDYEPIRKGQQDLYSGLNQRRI

| Binder | EC50 [1] | EC50 [2] | binding result [3] | EC50 [4] | binding result [5] | Maximum mean fluorescence intensity [2] | EC50 [5] [nM] | EC50 [3] [nM] |
| --- | --- | --- | --- | --- | --- | --- | --- | --- |
| B1 | 5.21 nM and 7.36 nM | 5.79 nM and 5.72 nM | no binding (tested: 100 nM highest concentration) | – | – | – | – | – |
| B2 | 223 nM and 221 nM | 161 nM | – | 74.7 nM and 49.7 nM and 66.8 nM and 101 nM | no binding (tested: 100 nM highest concentration) | – | – | – |
| B3 | – | – | – | – | – | 3280 | 0.69 | 2.97 |
| B4 | – | – | – | – | – | 575 | 0.38 | 1.3 |
| B5 | – | – | – | – | – | 416 | 2.36 | 5.19 |
| B6 | – | – | – | – | – | 1440 | 2.06 | 4.43 |
| B7 | – | – | – | – | – | 377 | 1.66 | 2.54 |
| B8 | – | – | – | – | – | 693 | 2.97 | 1.88 |
| B9 | – | – | – | – | – | 348 | 3.63 | 1.08 |
| B10 | – | – | – | – | – | 434 | 3.8 | 2.1 |
| B11 | – | – | – | – | – | 345 | 1.53 | 1.09 |
| B12 | – | 15.2 nM and 12.4 nM | no binding (tested: 100 nM highest concentration) | – | no binding (tested: 100 nM highest concentration) | – | – | – |
